Test results reported in PMC9482655 (2022).
Blank lines part the entries; values can stand above or below the binder they belong to.

How the values were obtained:
[1] = biological target: IZUMO1 ectodomain, biotin-labelled, sensor-bound (human, UniProt Q8IYV9 22-292, biotin on free lysine residues (EZ link sulfo-NHS-LC-biotinylation kit, 1:1 protein to biotin ratio)); experiment: BLI
[2] = biological target: JUNO ectodomain, biotin-labelled, sensor-bound (UniProt A6ND01 20-228, biotin on free lysine residues (EZ link sulfo-NHS-LC-biotinylation kit, 1:1 protein to biotin ratio)); experiment: BLI

Kd [1]: 14.2 nM
B1: JUNO ectodomain (BLI analyte; target protein of the pull-down) (domain or fragment)
chain: GDELLNICMNAKHHKRVPSPEDKLYEECIPWKDNACCTLTTSWEAHLDVSPLYNFSLFHCGLLMPGCRKHFIQAICFYECSPNLGPWIQPVGSLGWEVAPSGQGERVVNVPLCQEDCEEWWEDCRMSYTCKSNWRGGWDWSQGKNRCPKGAQCLPFSHYFPTPADLCEKTWSNSFKASPERRNSGRCLQKWFEPAQGNPNVAVARLFAS

Kd [2]: 36.8 nM
B2: IZUMO1 ectodomain (BLI analyte) (domain or fragment)
chain: CVICDPSVVLALKSLEKDYLPGHLDAKHHKAMMERVENAVKDFQELSLNEDAYMGVVDEATLQKGSWSLLKDLKRITDSDVKGDLFVKELFWMLHLQKETFATYVARFQKEAYCPNKCGVMLQTLIWCKNCKKEVHACRKSYDCGERNVEVPQMEDMILDCELNWHQASEGLTDYSFYRVWGNNTETLVSKGKEATLTKPMVGPEDAGSYRCELGSVNSSPATIINFHVTVLPKMIKEEKPSPNIVTPGEATTESSISLQPLQPEKMLASR
